Results from article PMC7502447, “Characterization and functional analysis of two novel thermotolerant α-L-arabinofuranosidases belonging to glycoside hydrolase family 51 from Thielavia terrestris and family 62 from Eupenicillium parvum” (Applied Microbiology and Biotechnology, 2020).

Substrate: O=[N+]([O-])c1ccc(O[C@@H]2O[C@@H](CO)[C@H](O)[C@H]2O)cc1
Experiment: purified protein
Type: biochemical, Thermothielavioides terrestris
Conditions: standard conditions, sodium acetate buffer, optimum pH 5.0, 70 °C

B1: TtABF51A (Thermothielavioides terrestris NRRL 8126) (protein)
chain: AVTLSVAKSGGNATSPYMYGIMFEDISHSGDGGLYAELIQNRAFQNGTLDAWSAVGGATLALDTSTPLSQALPRSVKVTGGQHTAGLKNSGFWGFDVKKSKKYTGSFYSYGEYSGRFTVSLVSNTTSEIFATTTVKSKSVAGRWTQHTFELRPTKDAPDISNSFVLEYKPTPHTELKFNLISLFPPTYKNRANGMRPELMEKLKELNPTYIRCPGGNNVEGNYAGNYWNWSATVGPLKDRPGRPGTWGYYNTDGLGLVEYMHWAEDLGMDVVLAVPAGLYLDGEVVSEADLAPFVQDALNELEFLMGDVSTPYGALRAKLGYPKPWKIKFVEIGNEDNLWGGLDSYKGYRFRMFYDAIKAKYPDIFIFSSTAEYMYKQSGRDYHEYTRPDYFVSQFGMFDNWTAGNPIMIGEFASIQNNTGKLEDTDWNAPKNPWSTWIGSVAEAVFLLGAERNSDRVWGVSFAPLLQNLNSYQWTPDLISFTADPADTTVSVSYPILSLFAKHPLTHTLPATAANGTSFGPAYWVAGRNDAAGTYLLKAAVYNSTGGAEVPFRVGFDGLSRGAPATLTVLTAPGGPFAHNTPANKNAVKTAVTQLRAGEGGVLEFSLPDLSVAVLEAKW
notes: full length 640 aa; predicted 20-aa signal peptide removed; C-terminal 6xHis; predicted N-terminal CBM4_9 kept; expressed in Trichoderma reesei D-86271
Km: 300 ± 20 µM
Vmax: 108 µmol/min/mg
kcat: 123 ± 2.91 s⁻¹
